According to article PMC1373645, “Lactate production yield from engineered yeasts is dependent from the host background, the lactate dehydrogenase source and the lactate export” (Microbial Cell Factories, 2006):

Test system: T1, CC(=O)C(=O)O
T1 construct: full length, TTG start changed to ATG, untagged, expressed in S. cerevisiae GRF18U; crude cell extract; homotetramer
Test: cells, lysate or membranes
Format: biochemical, Lactiplantibacillus plantarum
Conditions: NADH, acetate buffer pH 5.6, 25 °C, no fructose 1,6-diphosphate, Table 2 prints 1,50

“L. plantarum LDH (LpLDH, plLDH) (Lactiplantibacillus plantarum WCFS1; C302S/H54D)” showed a Km of 1504 µM.
